How the values were obtained:
Assay in all cases: cell-based or functional assay
[1] = molecular target: HIV-1 6535 envelope protein (Env) on pseudovirus (HIV-1 strain 6535)
[2] = molecular target: HIV-1 BX08 envelope protein (Env) on pseudovirus (HIV-1 strain BX08)
[3] = molecular target: HIV-1 BaL envelope protein (Env) on pseudovirus (HIV-1 strain Bal)

Substance: CD4-mimic peptide CD4M33
- neutralization IC50, CD4M33 alone [1]: 0.721 µg/mL
- neutralization IC50, CD4M33 concentration in combination with serum B714 [1]: 0.431 µg/mL
- neutralization IC50, CD4M33 concentration in combination with serum B716 [1]: 0.431 µg/mL
- neutralization IC50, CD4M33 concentration in combination with serum B718 [1]: 0.481 µg/mL
- neutralization IC50, CD4M33 concentration in combination with serum B720 [1]: 0.189 µg/mL
- neutralization IC50, CD4M33 alone [2]: 0.173 µg/mL
- neutralization IC50, CD4M33 concentration in combination with serum B714 [2]: 0.036 µg/mL
- neutralization IC50, CD4M33 concentration in combination with serum B716 [2]: 0.036 µg/mL
- neutralization IC50, CD4M33 concentration in combination with serum B718 [2]: 0.028 µg/mL
- neutralization IC50, CD4M33 concentration in combination with serum B720 [2]: 0.014 µg/mL
- neutralization IC50, CD4M33 alone [3]: > 0.25 µg/mL
- neutralization IC50, CD4M33 concentration in combination with serum B714 [3]: 0.048 µg/mL
- neutralization IC50, CD4M33 concentration in combination with serum B716 [3]: 0.057 µg/mL
- neutralization IC50, CD4M33 concentration in combination with serum B718 [3]: 0.045 µg/mL
- neutralization IC50, CD4M33 concentration in combination with serum B720 [3]: 0.017 µg/mL

— patent US20110195083A1
